Reference: patent US20140072613A1, “Compositions and Methods for Treating Cutaneous Scarring” (priority 2012, published 2014)

Assays:
Experiment in all cases: cell-based or functional assay
ALK4(h) (human) = target: T1, ALK4(h) (human) (UniProt P36896)
T1 sequence (looked up): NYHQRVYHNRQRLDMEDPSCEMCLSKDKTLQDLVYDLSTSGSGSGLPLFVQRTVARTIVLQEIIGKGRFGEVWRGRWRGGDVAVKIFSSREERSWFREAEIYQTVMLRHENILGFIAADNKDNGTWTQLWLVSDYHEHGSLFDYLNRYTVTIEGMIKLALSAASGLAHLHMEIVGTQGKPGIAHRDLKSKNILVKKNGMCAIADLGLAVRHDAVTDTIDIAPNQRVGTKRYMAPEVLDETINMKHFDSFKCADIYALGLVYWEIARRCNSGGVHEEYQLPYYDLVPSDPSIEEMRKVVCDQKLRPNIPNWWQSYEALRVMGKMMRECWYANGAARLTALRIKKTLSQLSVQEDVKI

Abl(Q252H)(h) (human) = Abl(Q252H)(h) (human) (UniProt P00519)
Axl(h) (human) = target: T2, Axl(h) (human) (UniProt P30530)
T2 sequence (looked up): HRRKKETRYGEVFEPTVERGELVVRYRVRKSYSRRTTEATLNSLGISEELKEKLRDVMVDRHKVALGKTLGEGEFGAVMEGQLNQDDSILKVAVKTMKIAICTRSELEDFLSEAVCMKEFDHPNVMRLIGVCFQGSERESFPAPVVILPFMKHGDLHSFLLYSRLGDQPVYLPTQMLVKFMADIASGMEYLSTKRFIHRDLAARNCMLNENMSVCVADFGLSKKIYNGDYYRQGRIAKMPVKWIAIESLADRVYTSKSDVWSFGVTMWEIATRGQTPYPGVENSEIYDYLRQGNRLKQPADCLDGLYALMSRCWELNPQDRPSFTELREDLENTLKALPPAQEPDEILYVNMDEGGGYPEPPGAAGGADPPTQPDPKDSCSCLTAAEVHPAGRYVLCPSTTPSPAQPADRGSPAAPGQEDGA

DRAK1(h) (human) = DRAK1(h) (human) (UniProt Q9UEE5)
EphA7(h) (human) = EphA7(h) (human) (UniProt Q15375)
Met(D1246N)(h) (human) = Met(D1246N)(h) (human) (UniProt P08581)
Met(M1268T)(h) (human) = Met(M1268T)(h) (human) (UniProt P08581)
PKCθ(h) (human) = PKCθ(h) (human) (UniProt Q04759)
PTK5(h) (human) = PTK5(h) (human) (UniProt P42685)
Pyk2 (h) (human) = Pyk2 (h) (human) (UniProt Q14289)
Ron(h) (human) = Ron(h) (human) (UniProt Q04912)
SAPK2a(T106M)(h) (human) = SAPK2a(T106M)(h) (human) (UniProt Q16539)
SAPK3(h) (human) = target: T3, SAPK3(h) (human) (UniProt P53778)
T3 sequence (looked up): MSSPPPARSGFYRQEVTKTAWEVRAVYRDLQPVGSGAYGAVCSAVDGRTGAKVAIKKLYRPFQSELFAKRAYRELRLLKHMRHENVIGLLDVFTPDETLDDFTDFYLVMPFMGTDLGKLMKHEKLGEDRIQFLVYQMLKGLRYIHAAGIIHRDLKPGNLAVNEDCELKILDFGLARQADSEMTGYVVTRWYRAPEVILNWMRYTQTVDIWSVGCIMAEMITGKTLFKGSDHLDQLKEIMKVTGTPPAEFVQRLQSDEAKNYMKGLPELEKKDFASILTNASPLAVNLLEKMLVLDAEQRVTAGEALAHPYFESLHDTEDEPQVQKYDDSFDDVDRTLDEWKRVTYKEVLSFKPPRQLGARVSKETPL

Src(T341M)(h) (human) = Src(T341M)(h) (human) (UniProt P12931)
TAO3(h) (human) = target: T4, TAO3(h) (human) (UniProt Q9H2K8)
T4 sequence (looked up): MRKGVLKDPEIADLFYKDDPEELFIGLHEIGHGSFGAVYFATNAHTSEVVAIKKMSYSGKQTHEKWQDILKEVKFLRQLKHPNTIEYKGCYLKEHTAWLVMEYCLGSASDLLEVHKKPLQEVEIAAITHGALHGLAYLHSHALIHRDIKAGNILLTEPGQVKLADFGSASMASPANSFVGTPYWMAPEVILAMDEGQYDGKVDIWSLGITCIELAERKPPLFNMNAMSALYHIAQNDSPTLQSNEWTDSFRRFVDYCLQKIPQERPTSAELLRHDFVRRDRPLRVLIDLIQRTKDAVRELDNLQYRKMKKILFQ

TSSK1(h) (human) = target: T5, TSSK1(h) (human) (UniProt Q9BXA7)
T5 sequence (looked up): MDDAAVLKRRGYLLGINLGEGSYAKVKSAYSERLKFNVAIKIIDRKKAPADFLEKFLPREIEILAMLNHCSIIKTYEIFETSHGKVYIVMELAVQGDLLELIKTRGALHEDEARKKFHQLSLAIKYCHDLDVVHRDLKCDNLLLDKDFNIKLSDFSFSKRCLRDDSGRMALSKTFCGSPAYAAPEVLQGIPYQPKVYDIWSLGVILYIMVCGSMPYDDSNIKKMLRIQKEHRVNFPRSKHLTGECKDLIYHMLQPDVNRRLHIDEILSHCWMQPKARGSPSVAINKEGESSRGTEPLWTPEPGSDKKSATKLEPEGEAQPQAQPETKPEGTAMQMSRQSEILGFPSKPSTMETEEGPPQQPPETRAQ

cKit(D816V)(h) (human) = cKit(D816V)(h) (human) (UniProt P10721)
Chain of cKit(D816V)(h) (human) (P10721 544-976 D816V): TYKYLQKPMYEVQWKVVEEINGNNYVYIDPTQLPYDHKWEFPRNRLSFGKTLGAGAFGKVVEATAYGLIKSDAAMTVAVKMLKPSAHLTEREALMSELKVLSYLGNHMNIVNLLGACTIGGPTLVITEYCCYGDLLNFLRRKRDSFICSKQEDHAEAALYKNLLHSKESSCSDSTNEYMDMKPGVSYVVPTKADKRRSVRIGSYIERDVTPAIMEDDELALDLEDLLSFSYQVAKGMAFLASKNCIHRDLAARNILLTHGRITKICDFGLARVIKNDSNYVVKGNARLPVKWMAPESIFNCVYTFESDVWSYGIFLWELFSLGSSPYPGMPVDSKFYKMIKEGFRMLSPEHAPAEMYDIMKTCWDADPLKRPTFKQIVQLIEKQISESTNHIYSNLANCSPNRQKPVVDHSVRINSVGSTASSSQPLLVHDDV

Chain of PKCθ(h) (human) (Q04759 whole entry): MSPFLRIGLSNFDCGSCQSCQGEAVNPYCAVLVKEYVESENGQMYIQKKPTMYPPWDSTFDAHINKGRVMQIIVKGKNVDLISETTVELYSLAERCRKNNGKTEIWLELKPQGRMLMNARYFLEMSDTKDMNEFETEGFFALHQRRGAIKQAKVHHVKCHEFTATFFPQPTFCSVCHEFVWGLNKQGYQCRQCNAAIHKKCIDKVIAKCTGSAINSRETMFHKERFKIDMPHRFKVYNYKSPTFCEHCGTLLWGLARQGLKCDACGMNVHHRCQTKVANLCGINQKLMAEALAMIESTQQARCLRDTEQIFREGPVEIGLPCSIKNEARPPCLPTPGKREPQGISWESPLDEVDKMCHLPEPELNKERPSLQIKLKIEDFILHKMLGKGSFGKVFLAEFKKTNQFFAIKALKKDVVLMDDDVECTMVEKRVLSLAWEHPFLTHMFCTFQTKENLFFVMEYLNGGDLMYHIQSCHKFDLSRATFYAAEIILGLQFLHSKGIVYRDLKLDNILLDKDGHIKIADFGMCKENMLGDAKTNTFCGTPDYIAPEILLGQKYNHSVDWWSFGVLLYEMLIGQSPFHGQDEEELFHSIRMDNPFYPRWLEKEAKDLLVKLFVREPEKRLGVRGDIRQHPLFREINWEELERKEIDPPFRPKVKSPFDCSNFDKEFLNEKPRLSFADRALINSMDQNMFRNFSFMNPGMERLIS
Chain of EphA7(h) (human) (Q15375 577-998 limits assumed): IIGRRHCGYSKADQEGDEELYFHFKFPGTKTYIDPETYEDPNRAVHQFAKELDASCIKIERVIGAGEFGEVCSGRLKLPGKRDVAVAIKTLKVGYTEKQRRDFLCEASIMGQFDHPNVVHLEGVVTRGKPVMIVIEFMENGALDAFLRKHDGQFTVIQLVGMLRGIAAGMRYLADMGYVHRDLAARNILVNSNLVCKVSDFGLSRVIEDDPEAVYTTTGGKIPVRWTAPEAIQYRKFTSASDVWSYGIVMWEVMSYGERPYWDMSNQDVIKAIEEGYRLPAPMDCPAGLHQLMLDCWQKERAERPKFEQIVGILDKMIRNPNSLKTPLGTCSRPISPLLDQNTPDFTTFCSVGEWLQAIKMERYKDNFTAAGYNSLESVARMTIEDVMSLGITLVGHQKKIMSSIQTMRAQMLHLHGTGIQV
Chain of Ron(h) (human) (Q04912 983-1400 limits assumed): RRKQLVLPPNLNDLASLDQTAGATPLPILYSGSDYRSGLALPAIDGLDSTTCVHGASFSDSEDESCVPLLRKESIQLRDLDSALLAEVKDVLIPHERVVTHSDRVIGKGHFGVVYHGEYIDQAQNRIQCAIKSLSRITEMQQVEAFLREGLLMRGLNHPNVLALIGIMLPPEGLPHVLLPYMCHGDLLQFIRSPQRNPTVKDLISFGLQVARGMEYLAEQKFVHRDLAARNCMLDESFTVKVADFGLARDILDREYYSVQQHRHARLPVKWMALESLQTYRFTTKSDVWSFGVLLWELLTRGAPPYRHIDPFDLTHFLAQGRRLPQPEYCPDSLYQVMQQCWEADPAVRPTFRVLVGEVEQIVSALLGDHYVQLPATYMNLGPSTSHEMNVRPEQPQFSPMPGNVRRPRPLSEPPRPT
Chain of PTK5(h) (human) (P42685 whole entry): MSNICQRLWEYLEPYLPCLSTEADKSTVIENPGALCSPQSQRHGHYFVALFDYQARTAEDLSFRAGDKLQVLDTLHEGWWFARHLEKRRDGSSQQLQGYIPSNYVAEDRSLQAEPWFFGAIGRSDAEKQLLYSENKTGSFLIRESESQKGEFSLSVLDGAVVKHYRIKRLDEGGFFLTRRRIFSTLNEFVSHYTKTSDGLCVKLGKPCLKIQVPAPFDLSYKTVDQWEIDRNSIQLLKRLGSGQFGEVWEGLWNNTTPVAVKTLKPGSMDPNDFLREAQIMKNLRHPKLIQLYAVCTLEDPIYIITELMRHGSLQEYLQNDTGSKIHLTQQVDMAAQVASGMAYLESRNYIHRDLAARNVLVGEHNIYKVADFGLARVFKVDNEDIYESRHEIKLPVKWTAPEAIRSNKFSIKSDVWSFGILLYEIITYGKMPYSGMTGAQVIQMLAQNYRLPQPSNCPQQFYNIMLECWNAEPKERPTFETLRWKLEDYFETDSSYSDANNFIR
Chain of SAPK2a(T106M)(h) (human) (Q16539 whole entry T106M): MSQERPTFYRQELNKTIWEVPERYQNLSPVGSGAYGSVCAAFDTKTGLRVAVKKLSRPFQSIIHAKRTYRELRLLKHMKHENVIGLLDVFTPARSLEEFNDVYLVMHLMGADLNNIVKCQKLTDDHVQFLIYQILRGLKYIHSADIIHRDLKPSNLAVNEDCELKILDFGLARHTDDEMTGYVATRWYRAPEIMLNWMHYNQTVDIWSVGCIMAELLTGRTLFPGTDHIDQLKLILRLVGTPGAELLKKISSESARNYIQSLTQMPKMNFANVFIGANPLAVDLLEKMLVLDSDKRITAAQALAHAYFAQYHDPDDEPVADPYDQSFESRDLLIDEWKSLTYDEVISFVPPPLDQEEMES
Chain of Pyk2 (h) (human) (Q14289 whole entry): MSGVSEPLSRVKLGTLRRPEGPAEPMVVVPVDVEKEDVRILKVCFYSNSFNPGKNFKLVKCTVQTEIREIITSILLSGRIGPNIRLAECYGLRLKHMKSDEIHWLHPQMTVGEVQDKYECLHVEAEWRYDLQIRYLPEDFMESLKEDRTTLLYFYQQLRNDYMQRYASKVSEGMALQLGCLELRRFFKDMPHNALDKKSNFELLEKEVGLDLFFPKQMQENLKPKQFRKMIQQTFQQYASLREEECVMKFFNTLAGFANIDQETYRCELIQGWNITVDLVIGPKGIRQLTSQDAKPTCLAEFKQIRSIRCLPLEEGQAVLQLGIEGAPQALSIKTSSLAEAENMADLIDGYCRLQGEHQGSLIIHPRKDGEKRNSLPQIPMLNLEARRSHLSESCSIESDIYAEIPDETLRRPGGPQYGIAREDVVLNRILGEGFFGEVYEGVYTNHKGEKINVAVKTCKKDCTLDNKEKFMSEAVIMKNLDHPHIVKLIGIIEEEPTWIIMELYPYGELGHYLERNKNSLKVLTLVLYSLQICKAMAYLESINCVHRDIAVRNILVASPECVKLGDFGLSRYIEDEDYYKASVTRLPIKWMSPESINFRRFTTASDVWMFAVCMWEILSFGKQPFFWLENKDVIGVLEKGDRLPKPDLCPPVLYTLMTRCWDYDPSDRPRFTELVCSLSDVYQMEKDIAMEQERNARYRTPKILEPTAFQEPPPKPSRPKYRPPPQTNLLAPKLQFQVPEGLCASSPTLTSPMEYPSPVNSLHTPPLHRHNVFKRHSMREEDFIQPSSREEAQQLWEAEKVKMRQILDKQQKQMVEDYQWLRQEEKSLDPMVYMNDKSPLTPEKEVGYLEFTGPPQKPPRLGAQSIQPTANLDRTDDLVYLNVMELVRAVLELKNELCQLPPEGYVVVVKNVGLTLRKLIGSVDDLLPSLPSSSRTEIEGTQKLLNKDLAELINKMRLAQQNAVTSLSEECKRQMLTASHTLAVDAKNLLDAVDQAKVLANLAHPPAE
Chain of DRAK1(h) (human) (Q9UEE5 whole entry): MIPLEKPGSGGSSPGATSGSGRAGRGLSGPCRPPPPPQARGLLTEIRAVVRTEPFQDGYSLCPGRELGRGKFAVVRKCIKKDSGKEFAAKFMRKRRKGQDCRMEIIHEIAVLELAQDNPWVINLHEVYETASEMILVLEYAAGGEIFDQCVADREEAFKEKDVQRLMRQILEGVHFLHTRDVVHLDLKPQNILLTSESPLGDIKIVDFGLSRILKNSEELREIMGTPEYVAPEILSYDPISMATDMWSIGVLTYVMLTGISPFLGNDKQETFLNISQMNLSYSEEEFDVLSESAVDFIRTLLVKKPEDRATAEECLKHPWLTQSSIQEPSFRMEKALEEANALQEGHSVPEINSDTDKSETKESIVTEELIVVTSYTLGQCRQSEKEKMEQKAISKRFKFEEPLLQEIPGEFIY

## MMI-0500 (peptide)
ALK4(h) (human)
  % activity, 100 µM: 81%
Abl(Q252H)(h) (human)
  % activity, 100 µM: 40%
Axl(h) (human)
  % activity, 100 µM: 12%
DRAK1(h) (human)
  % activity, 100 µM: 8%
EphA7(h) (human)
  % activity, 100 µM: 189%
Met(D1246N)(h) (human)
  % activity, 100 µM: 90%
Met(M1268T)(h) (human)
  % activity, 100 µM: 239%
PKCθ(h) (human)
  % activity, 100 µM: 62%
PTK5(h) (human)
  % activity, 100 µM: 96%
Pyk2 (h) (human)
  % activity, 100 µM: 46%
Ron(h) (human)
  % activity, 100 µM: 46%
SAPK2a(T106M)(h) (human)
  % activity, 100 µM: 32%
SAPK3(h) (human)
  % activity, 100 µM: 24%
Src(T341M)(h) (human)
  % activity, 100 µM: 59%
TAO3(h) (human)
  % activity, 100 µM: 12%
TSSK1(h) (human)
  % activity, 100 µM: 46%
cKit(D816V)(h) (human)
  % activity, 100 µM: 30%
